Patent publication US20160168251A1 (MorphoSys, published 2016)

Tests used:
[1] = biological target: T1, rhesus monkey NPRA on HEK cells bound to ANP (rhesus monkey, UniProt F7HE88 33-1061; P01160 124-151, chain 2: ANP is cyclic, its 17-residue ring closed by a disulfide bond between its two cysteines); experiment: KinExA whole cell binding (Kd,app), HEK cells with rhesus NPRA, ANP bound
T1 construct: also called Rhesus NPRA
T1 sequence: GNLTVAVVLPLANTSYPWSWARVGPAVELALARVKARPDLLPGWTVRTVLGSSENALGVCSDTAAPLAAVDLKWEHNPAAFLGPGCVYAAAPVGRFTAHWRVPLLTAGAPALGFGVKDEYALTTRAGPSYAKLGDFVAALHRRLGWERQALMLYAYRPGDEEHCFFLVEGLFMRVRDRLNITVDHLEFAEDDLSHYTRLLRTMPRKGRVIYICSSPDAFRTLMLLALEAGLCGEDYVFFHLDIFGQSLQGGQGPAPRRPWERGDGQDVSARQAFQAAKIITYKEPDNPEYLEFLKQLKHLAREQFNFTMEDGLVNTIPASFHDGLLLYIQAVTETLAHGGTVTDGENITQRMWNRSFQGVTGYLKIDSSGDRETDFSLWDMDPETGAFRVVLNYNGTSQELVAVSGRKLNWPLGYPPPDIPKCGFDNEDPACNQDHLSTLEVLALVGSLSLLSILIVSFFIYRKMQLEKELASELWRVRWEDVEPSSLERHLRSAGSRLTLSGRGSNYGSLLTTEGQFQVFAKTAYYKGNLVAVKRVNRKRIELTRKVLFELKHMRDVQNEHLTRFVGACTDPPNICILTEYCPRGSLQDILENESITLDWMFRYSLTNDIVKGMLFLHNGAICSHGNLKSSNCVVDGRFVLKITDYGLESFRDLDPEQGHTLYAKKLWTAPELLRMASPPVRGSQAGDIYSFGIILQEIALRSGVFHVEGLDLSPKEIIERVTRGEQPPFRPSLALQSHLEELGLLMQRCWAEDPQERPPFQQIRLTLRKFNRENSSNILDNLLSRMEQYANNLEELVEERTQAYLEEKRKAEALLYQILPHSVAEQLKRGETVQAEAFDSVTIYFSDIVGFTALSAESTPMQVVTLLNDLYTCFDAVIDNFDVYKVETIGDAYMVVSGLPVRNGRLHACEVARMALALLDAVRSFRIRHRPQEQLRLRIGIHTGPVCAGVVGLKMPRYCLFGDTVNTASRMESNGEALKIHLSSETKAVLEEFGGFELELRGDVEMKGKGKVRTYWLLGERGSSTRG
T1 sequence (peptide): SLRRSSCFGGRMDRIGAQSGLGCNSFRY
Protocol: Initial species cross-reactivity studies are performed using HEK cell lines overexpressing rat, canine and rhesus monkey NPRA. […] These apparent Kd values are obtained by globally fitting the data for two antibody concentrations.

[2] = biological target: T2, human NPRA on HEK293 cells bound to ANP (human, UniProt P01160 124-151); experiment: KinExA whole cell binding, HEK NPRA cells with 1 nM ANP, against SPR on NPRA-Fc
T2 construct: mature; Receptor-ligand complex on cells; also called HEK NPRA cells loaded with ANP; ANP-NPRA complex
T2 sequence: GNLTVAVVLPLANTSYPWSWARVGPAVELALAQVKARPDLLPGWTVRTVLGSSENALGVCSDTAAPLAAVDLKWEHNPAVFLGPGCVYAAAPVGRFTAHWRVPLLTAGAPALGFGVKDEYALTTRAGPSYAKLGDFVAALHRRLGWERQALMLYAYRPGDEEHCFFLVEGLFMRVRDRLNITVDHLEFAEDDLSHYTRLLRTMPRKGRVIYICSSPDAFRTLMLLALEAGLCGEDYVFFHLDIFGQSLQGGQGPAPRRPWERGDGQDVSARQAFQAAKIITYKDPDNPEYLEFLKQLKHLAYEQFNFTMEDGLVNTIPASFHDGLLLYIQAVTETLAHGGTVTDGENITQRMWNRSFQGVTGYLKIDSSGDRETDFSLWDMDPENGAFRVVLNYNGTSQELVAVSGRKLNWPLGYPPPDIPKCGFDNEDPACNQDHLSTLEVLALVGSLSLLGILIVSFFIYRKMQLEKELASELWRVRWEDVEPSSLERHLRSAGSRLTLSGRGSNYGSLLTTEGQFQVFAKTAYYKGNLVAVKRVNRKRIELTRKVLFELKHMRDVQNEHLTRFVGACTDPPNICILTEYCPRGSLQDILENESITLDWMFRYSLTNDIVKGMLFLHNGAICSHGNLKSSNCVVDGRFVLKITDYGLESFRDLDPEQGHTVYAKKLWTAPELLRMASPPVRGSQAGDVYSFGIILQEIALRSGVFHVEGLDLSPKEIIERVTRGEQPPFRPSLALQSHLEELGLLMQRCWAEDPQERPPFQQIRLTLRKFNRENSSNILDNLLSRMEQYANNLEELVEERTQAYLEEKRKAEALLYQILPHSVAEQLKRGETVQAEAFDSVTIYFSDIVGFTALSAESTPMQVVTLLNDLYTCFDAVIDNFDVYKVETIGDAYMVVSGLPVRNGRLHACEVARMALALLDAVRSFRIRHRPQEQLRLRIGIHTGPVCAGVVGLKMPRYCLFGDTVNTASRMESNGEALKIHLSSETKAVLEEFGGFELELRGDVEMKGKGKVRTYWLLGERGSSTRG
T2 sequence (peptide): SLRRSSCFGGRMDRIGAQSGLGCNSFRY

B1: 5591 IgG4_Pro (antibody, V domains shown)
VH: QVQLQQSGPGLVKPSQTLSLTCAISGDSVSSRSASWSWIRQSPGRGLEWLGRTYYRSHWYYEYAQSVKSRITINPDTSKNQFSLQLNSVTPEDTAVYYCARMDVPSFRYFDVWGQGTLVTVSS
VL: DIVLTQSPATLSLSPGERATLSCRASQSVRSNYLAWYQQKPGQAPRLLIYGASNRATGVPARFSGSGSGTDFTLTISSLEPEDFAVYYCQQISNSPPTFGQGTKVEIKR
Kd [1]: 0.266 nM | fold, apparent Kd on cells (KinExA) over Kd by surface plasmon resonance on NPRA-Fc [2]: ~20 fold
